Test results taken from patent US20030144481A1.
Values belong to the substance of their own block, whether it stands above or below them.

Columns and labels:
[1] = target: human αvβ3 protein (CHEMICON International), soluble (human) (UniProt P06756); experiment: cell-based or functional assay
[2] = target: αvβ3 integrin on HUVEC cells (human) (UniProt P06756); experiment: HUVEC attachment to Tumstatin-coated plates; anti-αvβ3 and anti-β1 antibodies used together
[3] = target: αvβ3 integrin on C-PAE cells (bovine) (UniProt P80746); experiment: C-PAE attachment to Tum-4-coated plates
αvβ3 integrin on C-PAE cells (bovine), sequence (P80746 31-1048): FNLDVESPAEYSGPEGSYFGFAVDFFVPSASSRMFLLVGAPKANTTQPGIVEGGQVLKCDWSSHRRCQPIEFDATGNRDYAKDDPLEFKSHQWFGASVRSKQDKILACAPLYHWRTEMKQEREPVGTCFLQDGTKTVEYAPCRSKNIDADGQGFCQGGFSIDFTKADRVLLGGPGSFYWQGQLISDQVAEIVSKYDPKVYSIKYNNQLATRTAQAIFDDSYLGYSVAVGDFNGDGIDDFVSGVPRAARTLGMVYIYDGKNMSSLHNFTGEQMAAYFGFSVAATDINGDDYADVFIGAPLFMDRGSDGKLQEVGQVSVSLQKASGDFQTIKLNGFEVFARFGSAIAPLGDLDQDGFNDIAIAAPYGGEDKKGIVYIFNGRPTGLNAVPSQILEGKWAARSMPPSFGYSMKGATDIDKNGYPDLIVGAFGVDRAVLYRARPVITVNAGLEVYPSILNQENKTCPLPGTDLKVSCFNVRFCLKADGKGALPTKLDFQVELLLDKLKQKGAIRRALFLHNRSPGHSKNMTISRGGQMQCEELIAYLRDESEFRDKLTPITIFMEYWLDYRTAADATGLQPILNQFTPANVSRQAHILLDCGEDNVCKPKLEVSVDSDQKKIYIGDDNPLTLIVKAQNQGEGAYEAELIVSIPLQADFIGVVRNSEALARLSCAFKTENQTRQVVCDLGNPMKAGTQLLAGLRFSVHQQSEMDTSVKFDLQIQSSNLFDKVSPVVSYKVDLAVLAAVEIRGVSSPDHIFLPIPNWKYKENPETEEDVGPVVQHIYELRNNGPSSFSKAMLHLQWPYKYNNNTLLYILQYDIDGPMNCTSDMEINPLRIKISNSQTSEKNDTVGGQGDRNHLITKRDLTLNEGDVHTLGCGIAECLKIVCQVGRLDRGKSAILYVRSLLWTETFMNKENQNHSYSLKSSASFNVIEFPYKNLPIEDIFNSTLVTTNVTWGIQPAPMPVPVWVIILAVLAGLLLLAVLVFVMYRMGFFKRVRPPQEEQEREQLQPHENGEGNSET

[4] = target: αvβ3 integrin on C-PAE cells (bovine) (UniProt P80746); experiment: C-PAE attachment to Tum-2-coated plates
[5] = target: αvβ3 integrin on HUVEC cells (human) (UniProt P06756); experiment: HUVEC attachment to plates coated with E. coli Tumstatin-45-132; 10 µg/ml antibody
[6] = target: αvβ3 integrin on HUVEC cells (human) (UniProt P06756); experiment: HUVEC adhesion to collagen Type IV-coated plates; 10 µg/ml antibody
[7] = target: αvβ3 integrin on C-PAE cells (bovine) (UniProt P80746); experiment: C-PAE attachment to Tum-1-coated plates
[8] = target: αvβ3 integrin on HUVEC cells (human) (UniProt P06756); experiment: cell binding to vitronectin-coated plates; 10 µg/ml antibody
[9] = target: αvβ3 integrin on HUVEC cells (human) (UniProt P06756); experiment: HUVEC attachment to Tumstatin-coated plates; 10 µg/ml antibody; against control IgG
[10] = target: integrin β1 subunit on HUVEC cells (human) (UniProt P05556); experiment: HUVEC adhesion to Arresten-coated plates; 10 µg/ml antibody; blocked pair Arresten / integrin β1
integrin β1 subunit on HUVEC cells (human), sequence (P05556 21-798): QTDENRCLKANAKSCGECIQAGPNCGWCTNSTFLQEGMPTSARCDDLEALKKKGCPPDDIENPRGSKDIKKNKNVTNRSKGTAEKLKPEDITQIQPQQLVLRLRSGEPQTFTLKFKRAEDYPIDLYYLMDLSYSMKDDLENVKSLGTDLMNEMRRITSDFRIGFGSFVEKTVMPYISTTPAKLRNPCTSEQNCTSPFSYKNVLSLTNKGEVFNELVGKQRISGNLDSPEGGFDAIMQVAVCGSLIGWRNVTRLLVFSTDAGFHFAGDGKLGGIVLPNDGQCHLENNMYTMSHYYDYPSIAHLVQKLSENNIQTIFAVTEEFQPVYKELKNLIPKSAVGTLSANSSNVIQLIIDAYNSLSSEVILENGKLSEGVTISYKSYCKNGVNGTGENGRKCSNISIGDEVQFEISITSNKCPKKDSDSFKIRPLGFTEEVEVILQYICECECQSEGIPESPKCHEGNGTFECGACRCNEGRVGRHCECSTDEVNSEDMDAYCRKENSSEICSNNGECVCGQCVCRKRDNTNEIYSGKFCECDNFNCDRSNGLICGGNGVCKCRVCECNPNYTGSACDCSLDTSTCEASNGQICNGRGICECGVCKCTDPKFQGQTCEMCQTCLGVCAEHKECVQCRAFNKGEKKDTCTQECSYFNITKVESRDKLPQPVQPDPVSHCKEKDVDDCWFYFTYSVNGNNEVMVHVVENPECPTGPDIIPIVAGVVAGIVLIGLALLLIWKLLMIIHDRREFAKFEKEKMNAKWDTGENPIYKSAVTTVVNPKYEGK

[11] = target: integrin β1 subunit on HUVEC cells (human) (UniProt P05556); experiment: HUVEC attachment to plates coated with E. coli Tumstatin-45-132; 10 µg/ml antibody
[12] = target: integrin β1 subunit on HUVEC cells (human) (UniProt P05556); experiment: HUVEC adhesion to collagen Type IV-coated plates; 10 µg/ml antibody
[13] = target: integrin β1 subunit on HUVEC cells (human) (UniProt P05556); experiment: cell binding to type IV collagen-coated plates; 10 µg/ml antibody; against control IgG
[14] = target: integrin β1 subunit on HUVEC cells (human) (UniProt P05556); experiment: HUVEC attachment to Tumstatin-coated plates; 10 µg/ml antibody; against control IgG

αvβ3 integrin on HUVEC cells (human), sequence (P06756 31-1048, chain 1 of 2): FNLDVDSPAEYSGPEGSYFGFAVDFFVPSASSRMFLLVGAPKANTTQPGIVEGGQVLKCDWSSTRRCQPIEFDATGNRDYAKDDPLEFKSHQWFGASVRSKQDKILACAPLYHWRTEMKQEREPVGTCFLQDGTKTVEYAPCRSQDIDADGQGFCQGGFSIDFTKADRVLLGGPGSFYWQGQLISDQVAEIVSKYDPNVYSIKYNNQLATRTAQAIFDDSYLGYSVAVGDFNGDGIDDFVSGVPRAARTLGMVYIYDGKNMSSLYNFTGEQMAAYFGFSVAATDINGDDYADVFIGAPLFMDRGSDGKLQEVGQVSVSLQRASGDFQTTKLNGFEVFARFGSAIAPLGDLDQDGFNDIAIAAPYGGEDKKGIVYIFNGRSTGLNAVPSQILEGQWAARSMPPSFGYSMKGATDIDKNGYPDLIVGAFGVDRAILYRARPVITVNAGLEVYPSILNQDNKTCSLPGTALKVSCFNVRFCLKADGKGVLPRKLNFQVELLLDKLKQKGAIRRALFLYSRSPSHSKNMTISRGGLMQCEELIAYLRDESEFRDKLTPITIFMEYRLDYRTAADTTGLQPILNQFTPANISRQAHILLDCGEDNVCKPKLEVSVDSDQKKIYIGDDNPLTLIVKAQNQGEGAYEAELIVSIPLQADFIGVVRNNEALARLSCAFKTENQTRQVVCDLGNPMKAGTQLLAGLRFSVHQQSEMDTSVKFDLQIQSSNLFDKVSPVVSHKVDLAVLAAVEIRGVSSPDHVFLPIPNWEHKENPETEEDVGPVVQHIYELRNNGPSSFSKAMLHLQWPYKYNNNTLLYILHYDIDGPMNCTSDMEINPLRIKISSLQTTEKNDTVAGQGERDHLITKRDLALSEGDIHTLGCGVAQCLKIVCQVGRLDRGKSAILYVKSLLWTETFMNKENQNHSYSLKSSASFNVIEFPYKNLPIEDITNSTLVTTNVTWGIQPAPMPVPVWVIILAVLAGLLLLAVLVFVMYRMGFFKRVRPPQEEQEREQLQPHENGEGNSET
αvβ3 integrin on HUVEC cells (human), sequence (P05106 27-788, chain 2 of 2, further chain): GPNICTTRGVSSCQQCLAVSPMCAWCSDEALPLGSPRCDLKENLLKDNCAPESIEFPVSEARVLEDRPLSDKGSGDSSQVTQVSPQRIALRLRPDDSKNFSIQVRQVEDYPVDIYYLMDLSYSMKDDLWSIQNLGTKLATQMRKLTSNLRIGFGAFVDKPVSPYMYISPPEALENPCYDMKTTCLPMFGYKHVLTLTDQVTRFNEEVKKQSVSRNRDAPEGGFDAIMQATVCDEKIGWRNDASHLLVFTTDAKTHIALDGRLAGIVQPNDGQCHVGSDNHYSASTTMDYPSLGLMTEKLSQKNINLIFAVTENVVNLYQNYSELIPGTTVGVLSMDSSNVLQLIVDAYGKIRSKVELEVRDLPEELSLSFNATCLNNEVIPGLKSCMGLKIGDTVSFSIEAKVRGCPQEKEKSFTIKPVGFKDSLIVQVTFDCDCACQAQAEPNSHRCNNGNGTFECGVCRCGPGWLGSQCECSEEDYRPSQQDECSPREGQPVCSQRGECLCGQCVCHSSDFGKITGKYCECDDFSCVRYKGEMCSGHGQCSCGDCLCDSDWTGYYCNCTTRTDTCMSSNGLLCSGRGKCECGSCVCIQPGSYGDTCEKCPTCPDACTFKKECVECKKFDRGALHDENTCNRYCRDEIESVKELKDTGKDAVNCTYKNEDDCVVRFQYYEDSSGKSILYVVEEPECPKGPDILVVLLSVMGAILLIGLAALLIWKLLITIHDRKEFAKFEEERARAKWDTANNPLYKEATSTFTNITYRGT

recovery of the anti-proliferative effect on C-PAE cells (methylene blue) [1]: 74.1%
Substance: Tum-2 (from UniProt Q01955 1427-1558) (ligand)

recovery of the anti-proliferative effect on WM-164 melanoma cells (methylene blue) [1]: 76.7%
Substance: Tum-4 (from UniProt Q01955 1607-1670) (ligand)

% inhibition of cell attachment [2]: 91%
% inhibition of cell attachment [3]: 62.6%
% inhibition of cell attachment [4]: 69.8%
% inhibition of cell attachment [5]: 47.1%
% inhibition of cell adhesion [6]: 15%
% inhibition of cell attachment [7]: 55.9%
% inhibition of cell binding [8]: 61%
% inhibition of cell attachment [9]: 80%
Substance: monoclonal antibody to αvβ3 integrin (clone LM609, CHEMICON International)

% inhibition of cell adhesion [10]: 70%
% inhibition of cell attachment [11]: 47.5%
% inhibition of cell adhesion [12]: 40%
% inhibition of cell binding [13]: 53%
% inhibition of cell attachment [14]: 54%
Substance: mouse monoclonal antibody to the human β1 integrin (clone P4C10, Life Technologies/Gibco BRL)
